Test [1] deals with phosphorylated product of Flourescein-QSPKKG-CONH2 (after overnight incubation with ATP and CDK2). As to the kind of experiment: fluorescence polarization in a cuvette, 50 mM TAPS pH 9.0, large excess of poly-D-lysine; about 38 mP without polylysine.
Test [2] addresses Flourescein-QSPKKG-CONH2 (neutrally charged phosphorylatable CDK2 substrate). As to the kind of experiment: fluorescence polarization in a cuvette, 50 mM TAPS pH 9.0, poly-D-lysine added in aliquots; about 38 mP without polylysine. (In general: Polarisation of emitted light reports the rotation of a fluorescent probe.)
The target of test [3] is phosphorylated product of Flourescein-QSPKKG-CONH2 (after overnight incubation with ATP and CDK2). The test is described as above.

As for poly-D-Lysine, the fluorescence polarization came out at 100 mP in test [1], 42 mP in test [2] and 72 mP in test [3].

These data come from US20040058406A1.
